For the series, the target named is T1, VEZF1-3xFlag (Homo sapiens, UniProt Q14119 1-521).
T1 sequence: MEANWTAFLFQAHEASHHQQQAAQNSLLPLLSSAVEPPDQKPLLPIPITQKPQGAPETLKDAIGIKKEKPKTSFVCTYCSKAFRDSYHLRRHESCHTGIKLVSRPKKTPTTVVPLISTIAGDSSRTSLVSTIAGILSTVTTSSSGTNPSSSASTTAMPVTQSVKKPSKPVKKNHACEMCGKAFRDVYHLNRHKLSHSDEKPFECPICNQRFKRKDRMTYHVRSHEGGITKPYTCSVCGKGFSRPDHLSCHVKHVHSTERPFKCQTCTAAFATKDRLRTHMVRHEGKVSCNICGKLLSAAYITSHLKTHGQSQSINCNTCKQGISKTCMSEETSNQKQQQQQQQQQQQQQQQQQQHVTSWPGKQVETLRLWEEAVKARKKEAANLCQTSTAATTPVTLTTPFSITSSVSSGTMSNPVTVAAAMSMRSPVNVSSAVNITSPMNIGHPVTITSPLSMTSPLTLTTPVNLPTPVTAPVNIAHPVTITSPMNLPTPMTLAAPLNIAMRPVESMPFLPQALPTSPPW
Kind of series: EMSA; 100 mM K+, 10 uM Zn2+; EMSA: 25 nM DNA, 10 mM Tris-HCl pH 7.5, 100 mM KCl, 10 uM ZnCl2, 1 mM DTT, 3% glycerol, on ice 30 min; 6% PAGE in TBE pH 8.3, 4 C. As to conditions: protein: recombinant, tags: C-terminal 3xFlag, label: 5'-TAMRA. (In EMSA bound probe runs differently from free probe, usually more slowly.)

For orientation: Kd means a measure of binding affinity in units of concentration. Regarding TGAGGGTGGGGAGGGTGGGGA (structured_DNA) [MYC G4], for the setting “G4”, the dissociation constant (Kd) is 2060 ± 120 nM. Consider AAAGGGTTAGTGTTAGTGTTAGGGAA (ssDNA) [hTEL M4], for which the dissociation constant Kd (single strand) worked out at 1640 ± 70 nM. For the molecule TGAGGGTGAGGAGTGTGGGGA (ssDNA) [MYC M4], the binding result (single strand) is recorded as “no binding”.

Take AAAGGGTTAGGGTTAGGGTTAGGGAA (structured_DNA) [hTEL G4]: the equilibrium dissociation constant (Kd) (G4) was found to be 780 ± 40 nM.

B1: R1M4-2 (ssDNA)
DNA: TCGTGAGTGTGGAGTGAGGTGCTGTGCCTGAGCTGAGAGCAGCTTAGTTTGCA
Take B1: under “single strand”, the binding result is “no binding”. As to GTGTGAGGTGGAAGTGAAAGAAGTGAAGAGCAGTGAGAGTGTGCC (ssDNA) [R1M4-1], the binding result (single strand) was “no binding”.

These data come from PMC7708047, “VEZF1–guanine quadruplex DNA interaction regulates alternative polyadenylation and detyrosinase activity of VASH1”.
